Target: recombinant human ACE2 (Homo sapiens, UniProt Q9BYF1)
Sequence (Q9BYF1 18-805): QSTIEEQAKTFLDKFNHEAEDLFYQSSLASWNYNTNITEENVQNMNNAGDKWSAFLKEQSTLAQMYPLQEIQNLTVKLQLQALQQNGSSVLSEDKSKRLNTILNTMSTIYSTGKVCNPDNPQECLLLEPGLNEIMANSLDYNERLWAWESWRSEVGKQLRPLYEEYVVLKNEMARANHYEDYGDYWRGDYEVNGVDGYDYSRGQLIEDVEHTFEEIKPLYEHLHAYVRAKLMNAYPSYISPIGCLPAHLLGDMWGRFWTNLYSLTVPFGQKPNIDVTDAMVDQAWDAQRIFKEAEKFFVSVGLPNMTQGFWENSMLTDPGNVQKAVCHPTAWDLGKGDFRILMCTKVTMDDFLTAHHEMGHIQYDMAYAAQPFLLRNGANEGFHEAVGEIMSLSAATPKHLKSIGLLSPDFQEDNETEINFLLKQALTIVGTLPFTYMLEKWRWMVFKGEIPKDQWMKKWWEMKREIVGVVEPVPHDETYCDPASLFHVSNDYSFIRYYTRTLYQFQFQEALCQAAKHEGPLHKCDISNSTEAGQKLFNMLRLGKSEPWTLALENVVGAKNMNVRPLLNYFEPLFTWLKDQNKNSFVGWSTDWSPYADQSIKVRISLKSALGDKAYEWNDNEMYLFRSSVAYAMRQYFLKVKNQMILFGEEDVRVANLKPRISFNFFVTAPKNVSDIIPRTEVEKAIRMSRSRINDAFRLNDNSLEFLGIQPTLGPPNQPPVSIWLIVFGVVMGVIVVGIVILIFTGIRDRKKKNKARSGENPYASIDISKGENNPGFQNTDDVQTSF

B1: WCSL IgG1 (sheet row 4) (antibody, V domains shown)
VH: EVQLLESGGGLVQPGGSLRLSCAASGFTFRNYAMSWVRQAPGKGLEWVSAISGSGSGTYYADSVKGRFTISRDNSKNTLYLQMNSLRAEDTAVYYCAKEGARIHWGQGTLVTVSS
VL: not shown
- binding result: binds

B2: WCSL IgG1 (sheet row 6) (antibody, V domains shown)
VH: QVQLVESGGGLIQPGGSLRLSCAASGFLVSSKYMSWVRQAPGKGLEWVSSIYSGGDTYYADSVKGRFTISRDNSKNTLSLQMHSLKADDTAVYYCARGATGYSDSWYENWGQGTLVTVSS
VL: DIVMTQSPLSLPVTPGEPASISCRPSQSLLHSNGNNYLDWYLQKPGQSPQLLIYLGSNRASGVPDRFSGSGSGTDFTLRISSVEAEDVGVYYCMQALQNPLTFGQGTRLEIK
- binding result: binds

B3: WCSL IgG1 (sheet row 8) (antibody, V domains shown)
VH: QLQLQESGPGLVKPSETLSLTCTVSGGSISSSSYYWGWIRQPPGKGLEWIGSIYYSGSTYYNPSLKSRVTISVDTSKNQFSLKLSSVTAADTAVYYCASSPRNWGSPRFAFDIWGQGTMVTVSS
VL: QSVLTQPPSVSGAPGQRVTISCTGTTSNIGAGYDVHWYQQLPGTAPKLLIFGNTNRPSGVPERFSASRSGTSASLAITGLQTTDEADYYCQSYDNSLSGSRVFGGGTKLTVL
- binding result: binds

B4: WCSL IgG1 (sheet row 9) (antibody, V domains shown)
VH: EVQLVESGGGLVQPGGSLRLSCAASGFTFRNYAMSWVRQAPGKGLEWVSAISGSGSGTYYADSVKGRFTISRDNSKNTLYLQMNSLRAEDTAVYYCAKEGARIHWGQGTLVTVSS
VL: DIVMTQSPLSLSVTPGEPASISCRSSQSLLHSNGNNYFDWYLQKPGQAPQLLIYLGSNRASGVPDRFSGSGSGTDFTLKISRVEAEDVGVYYCMQALQTPWTFGQGTKVEIK
- binding result: binds

B5: WCSL IgG1 (sheet row 10) (antibody, V domains shown)
VH: EVQLVESGGGLVKPGGSLRLSCAASGFTFSSYSMNWVRQAPGKGLEWVSSISSSSGYIYYSDSLKGRFTISRDNAKNSLYLQMNSLTAEDTAVYYCAREGHIASRGWGWFDSWGQGTLVTVSS
VL: DIVMTQSPVSLAVTPGESASISCRSSQSLLHRNGYNYVDWYLQKPGQSPQLLIYLGSTRASGVPDRFSGSGSGTDFSLQITRVEAEDVGVYYCMQPLEIPLTFGGGTKLEIK
- binding result: binds

B6: WCSL IgG1 (sheet row 12) (antibody, V domains shown)
VH: EVQLLESGGGLVQPGGSLRLSCAASGFTFSSYWMHWVRQAPGKGLEWVSAISGSGGSTYYADSVKGRFTISRDNSKNTLYLQMNSLRAEDTAVYYCARDTPLYYDFWSGDAFDIWGQGTMVTVSS
VL: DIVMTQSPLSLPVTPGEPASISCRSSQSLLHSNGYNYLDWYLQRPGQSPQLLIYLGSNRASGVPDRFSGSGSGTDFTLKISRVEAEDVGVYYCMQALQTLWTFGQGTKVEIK
- binding result: binds

B7: WCSL IgG1 (sheet row 13) (antibody, V domains shown)
VH: EVQLVESGGGLVKPGGSLRLSCAASGFTFSSYSMNWVRQAPGKGLEWVSSISSSSSYIYYADSVKGRFTISRDNAKNSLYLQMNSLRAEDTAVYYCARATTVVTPGYFQHWGQGTLVTVSS
VL: EIVLTQSPATLSLSPGQRATLSCRASQSVSSSLAWYQQKPGQAPRLLIYDASDRATDIPARFSGSGSGTDFTLTISSLEPEDFAVYYCQQRTNWPPLTFGGGTKVEIK
- binding result: binds

B8: WCSL IgG1 (sheet row 14) (antibody, V domains shown)
VH: VESGGGLVQPGGSLRLSCVASGAASGFTFSTESMNWVRQAPGKGLEWVSYIYPSGGGAYYADSVQGRFTVSRDNAKNSVYLQMNSLRVEDTAVYYCVRHQYGDYPSWGQGTPVTVSS
VL: DIVMTQSPLSLSVTPGEPASISCRSSQSLLHSNGFNYFDWYLQKPGQSPQLLIYLGSNRASGVPDRFSGSGSGTDFTLKISRVEAEDVGVYYCMQGLQIPYTFGQGTKLEIK
- binding result: binds

B9: WCSL IgG1 (sheet row 16) (antibody, V domains shown)
VH: QITLKESGPTLVKPTQTLTLTCTFSGFSLSTSGVGVGWIRQPPGKALEWLALIYWDDDKRYSPSLKSRLTITRDTSKNLVVLTMINMDPVDTATYYCAHSHSTTWGAFDYWGQGTLVTVSS
VL: DIVMTQSPDSLAVSLGERATINCKSSRSVLYTYNNKDDVAWYQQKPGQPPKLLIYWASTRESGVPDRFSGSGSGTDFTLTISSLQAEDVAVYYCQQYYSAPLTFGGGPRWRSN
- binding result: binds

B10: WCSL IgG1 (sheet row 18) (antibody, V domains shown)
VH: EVQLVESGGGVVQPGRSLRLSCAASGFTFSSYGMHWVRQAPGKGLEWVSYIYPSGGGAYYADSVQGRFTVSRDNAKNSVYLQMNSLRVEDTAVYYCTRDFWSAPIPMWGQGTLVTVSS
VL: DIVMTQSPVSLPVTPGEPASISCRSSQSLLHSNGHNYLNWYLQKPGQSPHLLIYLGSNRASGVPDRFSGSGSGTDFTLNISRVEAEDVGVYYCMQALQTPWTFGQGTKVEIK
- binding result: binds

B11: WCSL IgG1 (sheet row 19) (antibody, V domains shown)
VH: EVQLVESGGGVVQPGRSLRLSCAASGFTFSNYAMSWVRQAPGKGLEWVSGISGSGGSTYYADSVKGRFTISRDNSKNTLYLQMNSLRAEDTAVYYCARDRGYSYAAFQHWGQGTLVTVSS
VL: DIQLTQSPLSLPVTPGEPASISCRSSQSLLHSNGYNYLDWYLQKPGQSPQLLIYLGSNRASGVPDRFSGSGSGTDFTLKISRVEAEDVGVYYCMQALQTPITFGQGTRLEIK
- binding result: binds
